# Literature values in paper PMC9254164.
# Molecular target: phospho-ubiquitin (Homo sapiens) (UniProt P0CG47)
# Parkin, sequence (O60260 whole entry): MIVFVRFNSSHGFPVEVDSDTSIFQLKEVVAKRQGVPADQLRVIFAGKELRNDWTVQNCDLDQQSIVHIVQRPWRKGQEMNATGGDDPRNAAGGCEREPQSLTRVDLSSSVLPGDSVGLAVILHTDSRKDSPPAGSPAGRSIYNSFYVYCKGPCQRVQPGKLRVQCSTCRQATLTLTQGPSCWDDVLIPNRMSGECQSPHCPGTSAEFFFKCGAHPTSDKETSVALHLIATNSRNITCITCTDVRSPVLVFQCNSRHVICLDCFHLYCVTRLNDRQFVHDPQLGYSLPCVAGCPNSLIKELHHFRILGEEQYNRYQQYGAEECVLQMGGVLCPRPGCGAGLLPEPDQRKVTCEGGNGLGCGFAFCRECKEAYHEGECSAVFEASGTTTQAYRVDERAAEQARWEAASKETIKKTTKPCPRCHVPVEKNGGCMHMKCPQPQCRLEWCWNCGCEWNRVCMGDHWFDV
substance,measurement,value
Parkin (from UniProt O60260),Kd,20 nM
